Reference: US20240182575A1

Assays:
[1] = molecular target: rhB7-H2-Fc (fusion protein of the extracellular part of human B7-H2 (ICOSL) and mouse Fc gamma 1, R&D Systems Cat #165-B7) (human; mouse) (UniProt O75144); assay: competition ELISA, coated B7-H2; competes with ICOS-biotin
[2] = molecular target: HuCTLA4-HuIgG1 (fusion protein of the extracellular part of human CD152 and human Fc gamma 1, CTLA4-Ig) (human) (UniProt P16410); assay: alphascreen, CTLA4-Fc; blocked ligand biotinylated CD80-Fc
[3] = molecular target: human CTLA4 (Y201 mutated to valine) on stably transfected CHO-K1 cells (human) (UniProt P16410); assay: FACS competition, human CTLA4 CHO cells; blocked ligand HuB7.1/Fc
human CTLA4 (Y201 mutated to valine) on stably transfected CHO-K1 cells (human), sequence (P16410 other isoform, or with tags, fused parts or gaps, change not shown): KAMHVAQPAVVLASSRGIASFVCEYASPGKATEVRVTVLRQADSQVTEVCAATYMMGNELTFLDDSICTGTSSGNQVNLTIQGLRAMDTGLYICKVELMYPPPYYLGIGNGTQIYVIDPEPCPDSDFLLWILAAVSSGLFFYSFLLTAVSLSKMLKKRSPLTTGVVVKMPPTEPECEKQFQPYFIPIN

HuCTLA4-HuIgG1 (fusion protein of the extracellular part of human CD152 and human Fc gamma 1, CTLA4-Ig) (human), sequence (P16410 36-161 limits assumed): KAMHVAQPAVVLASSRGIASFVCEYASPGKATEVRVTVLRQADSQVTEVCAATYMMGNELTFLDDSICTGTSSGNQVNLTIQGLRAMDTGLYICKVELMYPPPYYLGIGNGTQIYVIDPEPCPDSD
cold ICOS (receptor), sequence (Q9Y6W8 21-140): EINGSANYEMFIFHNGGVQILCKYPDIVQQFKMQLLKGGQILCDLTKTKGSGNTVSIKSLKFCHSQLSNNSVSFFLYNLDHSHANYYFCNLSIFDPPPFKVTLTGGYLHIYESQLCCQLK
rhB7-H2-Fc (fusion protein of the extracellular part of human B7-H2 (ICOSL) and mouse Fc gamma 1, R&D Systems Cat #165-B7) (human; mouse), sequence (O75144 other isoform, or with tags, fused parts or gaps limits assumed): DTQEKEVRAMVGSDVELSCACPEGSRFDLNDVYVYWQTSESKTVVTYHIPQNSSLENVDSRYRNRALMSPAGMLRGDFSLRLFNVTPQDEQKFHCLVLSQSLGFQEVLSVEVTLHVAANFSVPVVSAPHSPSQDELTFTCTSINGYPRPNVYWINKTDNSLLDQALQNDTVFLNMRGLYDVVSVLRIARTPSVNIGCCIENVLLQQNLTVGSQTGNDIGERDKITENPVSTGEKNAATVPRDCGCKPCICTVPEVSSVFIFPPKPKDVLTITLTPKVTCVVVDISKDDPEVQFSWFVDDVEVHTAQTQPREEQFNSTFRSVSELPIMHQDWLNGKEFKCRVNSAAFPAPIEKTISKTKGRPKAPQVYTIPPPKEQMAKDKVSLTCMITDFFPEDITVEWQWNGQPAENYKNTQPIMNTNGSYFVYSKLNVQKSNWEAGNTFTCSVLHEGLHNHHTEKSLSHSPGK

| IC50 (read off the curve) [1] [nM] | IC50 (read off the curve) [2] [nM] | IC50 (read off the curve) [3] [nM] | Substance |
| --- | --- | --- | --- |
| 20 |  |  | cold ICOS (receptor) |
|  | 2 |  | BNI3 fab |
|  | 0.3 | 10 | Mouse-anti-human CTLA4 clone BNI3 (antibody) |
